Source: patent US7887851B2, “Aromatase activator” (Kao Corporation, priority 2004, dated 2011)

Assays:
[1] = system: transcription control region for exon 1b of human aromatase gene; test: Luciferase reporter assay, Ex1b-luc in HepG2 cell (expression of exon 1b of aromatase gene); assay type: cell-based; conditions: 20 hours
Experimental: The region containing transcription control region for exon 1b of human aromatase gene and a part of the exon 1b was amplified by PCR from genomic DNA extracted from human normal keratinocyte by using the following primers: […]
The resulting PCR product was treated with restriction enzymes SpeI and EcoRI, and incorporated in SpeI site and EcoRI site in SeaPansy null Control Vector (Toyo Ink Mfg. Co., Ltd.) to produce Ex1b-luc plasmid. This plasmid was used in the luciferase assay as will be described below.
Immortalized human hepatoma-derived cell (HepG2 cell) […]
The transfected cells were cultivated overnight, and plant extract prepared in Production Example 1, Table 2, or yeast extract (“YeastLiquid B”, Ichimaru Pharcos Co Ltd.), silk protein extract (“Silkgen G Soluble KE”, Ichimaru Pharcos Co Ltd.), milk protein (“Bioderma SX-14” Ichimaru Pharcos Co Ltd.), “lactoferrin S FREE”, Ichimaru Pharcos Co Ltd.), natto extract (“Soybean polymer F B-20”, Ichimaru Pharcos Co Ltd.), or royal jelly (“royal jelly extract”, Ichimaru Pharcos Co Ltd.) was added (1% or 0.1%), and the cultivation was continued for another 20 hours. After adding 20 μL of alamarBlue (BIOSOURCE), fluorescence intensity (excitation light 544 nm, fluorescence 590 nm) was measured. Luciferase activity was also measured by using PicaGene Dual SeaPansy Luminescence kit (Nippon Gene). […]

[2] = system: HepG2 cell; test: alamarBlue fluorescence in Ex1b-luc transfected HepG2 cell; assay type: cell-based, human; conditions: 20 hours
Experimental: Immortalized human hepatoma-derived cell (HepG2 cell)
HepG2 cell was inoculated to 96 well culture plate at 30,000 cells per well, and Ex1b-luc was introduced using lipofectamine reagent (Invitrogen) according to the protocol described in the attached manual. The DNA was used at an amount of 0.1 μg per well. The same procedure was repeated for control without adding the DNA (2 wells).
The transfected cells were cultivated overnight, and plant extract prepared in Production Example 1, Table 2, or yeast extract (“YeastLiquid B”, Ichimaru Pharcos Co Ltd.), silk protein extract (“Silkgen G Soluble KE”, Ichimaru Pharcos Co Ltd.), milk protein (“Bioderma SX-14” Ichimaru Pharcos Co Ltd.), “lactoferrin S FREE”, Ichimaru Pharcos Co Ltd.), natto extract (“Soybean polymer F B-20”, Ichimaru Pharcos Co Ltd.), or royal jelly (“royal jelly extract”, Ichimaru Pharcos Co Ltd.) was added (1% or 0.1%), and the cultivation was continued for another 20 hours. After adding 20 μL of alamarBlue (BIOSOURCE), fluorescence intensity (excitation light 544 nm, fluorescence 590 nm) was measured. Luciferase activity was also measured by using PicaGene Dual SeaPansy Luminescence kit (Nippon Gene). The cells were lysed by adding 25 μL per well of the lysis buffer that had been diluted 5× lysis buffer to 1× concentration.

B1: Lactoferrin: milk protein; commercial product "Lactoferrin S FREE" (Ichimaru Pharcos) (protein, UniProt P24627 20-708, looked up)
Lactotransferrin: APRKNVRWCTISQPEWFKCRRWQWRMKKLGAPSITCVRRAFALECIRAIAEKKADAVTLDGGMVFEAGRDPYKLRPVAAEIYGTKESPQTHYYAVAVVKKGSNFQLDQLQGRKSCHTGLGRSAGWIIPMGILRPYLSWTESLEPLQGAVAKFFSASCVPCIDRQAYPNLCQLCKGEGENQCACSSREPYFGYSGAFKCLQDGAGDVAFVKETTVFENLPEKADRDQYELLCLNNSRAPVDAFKECHLAQVPSHAVVARSVDGKEDLIWKLLSKAQEKFGKNKSRSFQLFGSPPGQRDLLFKDSALGFLRIPSKVDSALYLGSRYLTTLKNLRETAEEVKARYTRVVWCAVGPEEQKKCQQWSQQSGQNVTCATASTTDDCIVLVLKGEADALNLDGGYIYTAGKCGLVPVLAENRKSSKHSSLDCVLRPTEGYLAVAVVKKANEGLTWNSLKDKKSCHTAVDRTAGWNIPMGLIVNQTGSCAFDEFFSQSCAPGADPKSRLCALCAGDDQGLDKCVPNSKEKYYGYTGAFRCLAEDVGDVAFVKNDTVWENTNGESTADWAKNLNREDFRLLCLDGTRKPVTEAQSCHLAVAPNHAVVSRSDRAAHVKQVLLHQQALFGKNGKNCPDKFCLFKSETKNLLFNDNTECLAKLGGRPTYEEYLGTEYVTAIANLKKCSTSPLLEACAFLTR
Luciferase activity ([1]; added at 0.1%): 155.2% | Luciferase activity ([1]; added at 1%): 181.5% | AlamarBlue activity ([2]; added at 0.1%): 135.9% | AlamarBlue activity ([2]; added at 1%): 138.2%
